{"source": "patent US20250215071A1", "about": "“Novel Mcl-1 inhibitor and combination of Mcl-1 and a BH3 mimetic, such as a Bcl-2 inhibitor” (NETRIS PHARMA, priority 2022, published 2025)", "molecules": {"B1": {"name": "NP137: humanized anti-netrin-1 monoclonal antibody, VH SEQ ID NO: 22, VL SEQ ID NO: 16, human IgG1 (antibody, V domains shown)", "VH": "QVQLQQSGPGLVKPSQTLSLTCAISGYTFTSYNMHWVRQATGQGLEWMGAIYPGNGDTSYNQKFKGRLTISKDTSKNQVVLTMTNMDPVDTATYYCARGGTGFAYWGQG", "VL": "DIQMTQSPSSLSASVGDRVTITCKASQSVSNDVAWYQQKPGQAPRLLIYYASNRYTGIPPRFSGSGYGTDFTLTINNIESEDAAYYFCQQDYSSPWTFGQG", "modifications": "human IgG1 constant region; humanized variant; MISC_FEATURE - CDR according to IGMT"}}, "key": {"Mcl-1": {"system": "Mcl-1", "assay": "Mcl-1 immunohistochemistry on paired biopsies of phase I trial patients (NCT02977195)", "assay_type": "in vivo, human", "experimental": "(§1) FIG. 7. Netrin-1 interference triggers Mcl-1 degradation in vitro and in vivo. (A,B): Netrin-1 silencing triggers Mcl-1 degradation. Breast cancer MCF7 cells were transfected with scramble (siCTRL) or netrin-1 (siNet) targeting siRNAs. 48 hours after transfection, cells were lysed by scraping and sonication in SDS-containing buffer. Protein levels of Mcl-1, netrin-1, and UNC5B, as well as B-actin and Ku80, used as housekeeping genes, were evaluated by western blot (A). Relative Mcl-1 protein levels, normalized to β-actin or Ku80, are shown in (B) (n=2, *** p<0.001, **** p<0.0001, ordinary two-way ANOVA with Sidak's multiple comparisons test). Activation of endogenous UNC5B upon netrin-1 silencing decreased Mcl-1 protein levels. Values are given as means±SEM. (C,D): Netrin-1 interference degrades Mcl-1 in a syngeneic breast cancer model. Stable EMT6 cells, constitutively over-expressing human Mcl-1, were engrafted in BALB/c mice. Once tumors reached a volume of 100 mm^3, mice were treated with Iso-mAb or NP137 antibodies and sacrificed 8 hours after treatment. Protein levels of Mcl-1 were then evaluated by western blot (C). […] Mcl-1 protein was quantified in paraffin-embedded slices on paired C1D1 and C3D1 biopsies and compared with clinical benefit (stable disease, SD, or progression disease, PD, at 6 weeks). Mcl-1 intensity was assessed in all, PD or SD biopsies (E) (n=6, Wilcoxon test). […]\nThe NP137 antibody is currently being assessed in several phase I and II clinical trials, in patients with advanced solid tumours. […] Mcl-1 presence was thus analysed by immunohistochemistry.\nFor histological examination of tumours engrafted in nude mice, ex vivo breast cancer slices, and from human clinical trial, tumours were fixed in 10% buffered formalin and embedded in paraffin. […] Quantification of caspase-3- and Mcl-1-positive cells was performed with HALO software and adapted algorithms cytonuclear v2.0.8 6 (Indica Labs, Albuquerque, NM, USA). MCL1 intensity, has been calculated in percentage over the surface of tumour cells. […]"}, "human Mcl-1": {"system": "human Mcl-1", "assay": "In vivo Mcl-1 degradation in EMT6 syngeneic breast cancer model (western blot)", "conditions": "EMT6 cells over-expressing human Mcl-1 in BALB/c mice; 20 mg/Kg i.v.; 8 hours after treatment; vs control mice (Iso-mAb)", "experimental": "as §1, with “Activation of endogenous UNC5B upon netrin-1 silencing decreased Mcl-1 protein levels. Values are given as means±SEM. (C,D): Netrin-1 interference degrades Mcl-1 in a syngeneic breast cancer model. Stable EMT6 cells, constitutively over-expressing human Mcl-1, were engrafted in BALB/c mice. Once tumors reached a volume of 100 mm^3, mice were treated with Iso-mAb or NP137 antibodies and sacrificed 8 hours after treatment.” left out\nFor immunoblotting analysis, cells were lysed by sonication in SDS buffer (10 mM Tris-HCl pH 7.4, 10% glycerol, 5% SDS, 1% TX-100, 100 mM DTT) in the presence of protease inhibitor cocktail (Roche Applied Science). […] Protein band quantification was performed with Image Lab 6.1 software (Bio-rad), considering the adjusted volume intensity normalized with housekeeping genes. […]"}}}
{"molecule": "B1", "values": [{"measurement": "patient tumours with reduced Mcl-1 levels", "setting": "Mcl-1; all twelve patients, 14 mg/kg once every two weeks, C3D1 vs C1D1 biopsies", "result": "nine out of the twelve"}, {"measurement": "patients with Mcl-1 decrease", "setting": "Mcl-1; six patients with progression disease (PD) at 6 weeks", "result": "three of the six"}, {"measurement": "patients with Mcl-1 decrease", "setting": "Mcl-1; six patients with stable disease (SD) at 6 weeks", "result": "six patients with SD showed Mcl-1 decrease"}, {"measurement": "Mcl-1 protein levels in tumors", "setting": "human Mcl-1", "result": "significantly reduced Mcl-1 protein levels"}]}
